# Assay: yeast display, Sf9 membrane polyspecificity reagent, FACS + sequencing; frameworks hold sequencing errors
# In short: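 Genes from sorted yeast were amplified by colony PCR, read by MiSeq 2 × 250 sequencing and filtered on CDR length. These cells carried a synthetic nanobody library in Saccharomyces cerevisiae BJ5465 and were sorted by FACS into low and high (top ~1%) gates on anti-HA and streptavidin fluorescence. Polyreactivity is labelled according to the gate of origin.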
row,Sequence,polyreactivity (PSR sort gate)
1,QVQLVESGGGLVQAGGSLRLSCAASGSIFGYYAMGWYRQAPGKERELVAAISSGGSTKYADSVKGRFTISRDNAKNTVYLQMNSLKPEDTAVYYFNAAYSQIRFNYRGQGTQVTVSS,high polyreactivity
2,QVQLVESGGGLVQAGGSLRLSCAASGSIFGYYAMGWYRQAPGKERELVAAISTSGGRTYYADSVKGRFTISRDNAKNTVYFQMNSLKPEDTAVYYCAARVYSTSVVAYYYWGQGTQVTVSS,high polyreactivity
3,QVQLVESGGGLVQAGGSLRLSCAASGSIFGYYAMGWYRQAPGKERELVAAISWSGGRTYYADSVKGRFTISRDNAKNTVYLQMNSLKPEDTAVYYCNARWRSGPRAYDYWGQGTQVSVSS,high polyreactivity
4,QVQLVESGGGLVQAGGSLRLSCAASGSIFGYYTMGWYRQAPGKERELVAAITRSGATTFYADSVKGRFTISRDNAKNTVYLQMNSLKPEDTAVYYCAAKARGYTRGYWGQGTQVTVSS,high polyreactivity
5,QVQLVESGGGLVQAGGSLRLSCAASGSIFGYYTMGWYRQAPGKERELVARITRGGSTYYADSVKGRFTISRDNAKNTVYLQMNSLYPEDTSVYYCNAEIWTEGGYWGQGSQVTVSS,low polyreactivity
6,QVQLVESGGGLVQAGGSLRLSCAASGSIFGYYTMGWYRQAPGKERELVATINWSGGNTYYADSVKGRFTISRDNAKNTVYLQMNSLKPEDTAVYYCATRPRRGTSENGYWGQGTQVTVSS,high polyreactivity
7,QVQLVESGGGLVQAGGSLRLSCAASGSIFGYYTMGWYRQAPGKERELVATISRSGGSTYYADSVKGRFTISRDNAKNTVYLQMNSLKPEDTAVYYCAARSWGGYDSRGYWGQGTQVTVSS,high polyreactivity
8,QVQLVESGGGLVQAGGSLRLSCAASGSIFGYYVMGWYRQAPGKERELVAAISGSDSSTYYADSVKGRFTISRDNAKNTVYLQMNSLKPEDTAVYYCNADLRYYPVEFDYWGQGTQVTVSS,low polyreactivity
9,QVQLVESGGGLVQAGGSLRLSCAASGSIFHDYAMGWYRQEHGKERELVAVISTSGGSTYYADSVKGRFTISRDNAKNTDYLQMNSLKPEYTAVYYCNARTVGPYPSQAALEYDSGGQGTQVTVSS,low polyreactivity
10,QVQLVESGGGLVQAGGSLRLSCAASGSIFHGNAMGWNRQAPGKERELVATISSGGSTYYADSVKGRFTISRDNAKNTVYLQMNSLKPEDTAVYYCAAEYWNGPYYGDPFEYDYWGQGTQVTVSS,low polyreactivity
11,QVQLVESGGGLVQAGGSLRLSCAASGSIFHGYAMGWYRHAPGKERELVAAITWSGGRTYYADSVKGRFTISRDNAKNNVYLQMNSLKPEDTAVYYCAAVALTRRYDYWGQGTQVTVSS,high polyreactivity
12,QVQLVESGGGLVQAGGSLRLSCAASGSIFHGYAMGWYRQAHGKETELVAVITRGGNTYYADSVKGRFTISRDNAKNTVYLQMNSLKPEDTAVYYCNKAVDRGRRAYGYWGQGTQVTVSS,high polyreactivity
13,QVQLVESGGGLVQAGGSLRLSCAASGSIFHGYGMGWYRPAPGKERELVASITWIGGDTYYADSVKGRFTISRDNAKNTVYLQMNSLKPEDTAVYYCNAEWVVTYIYDYWGQGTQVTVSS,low polyreactivity
14,QVQLVESGGGLVQAGGSLRLSCAASGSIFHINAMGWYRQAPGKERELVAAISSADRTYYADSVKGRFTISRDNAMNTVYLQMNSLKPEDTAVYYCAAVYYRYPYEYWGQGTQVTVSS,high polyreactivity
15,QVQLVESGGGLVQAGGSLRLSCAASGSIFHPNAMGWYRQAPGKERELVAAISIGGDTYYADSVKGRFTISRDNAKNTVYLQMNSLKPEDTAVYYCAVTYVGHVYEYYYWGQGTQVTVSS,low polyreactivity
16,QVQLVESGGGLVQAGGSLRLSCAASGSIFHQYAMGWYRQAPGKERELVAAISANGGRTYYADSVKGRFTISRDNAKNTVYLQMNSLIPEDTAVYYCAASRPSYGVRYGYWGQGTQVTGSS,high polyreactivity
17,QVQLVESGGGLVQAGGSLRLSCAASGSIFHRNTMGWYRQAPGKERELVAAIRRGGSTYYADSVKGRFTISRDNAKNTVYLQMNSLKPEDTAVYYCAADFPGEYYYWGQGTQVTVSS,high polyreactivity
18,QVQLVESGGGLVQAGGSLRLSCAASGSIFHRYAMGWYRQAPGKERELVAAISWRGSSTYYADSVKGRFTISRDNAKNTVYLQMNSLKPEDTAVYYCNARGGSRRRYDYWGQGTQVTVSS,high polyreactivity
19,QVQLVESGGGLVQAGGSLRLSCAASGSIFHTYAMGWYRQAPGKEWELVAAISTDGSTYYADSVKGRFTISRDNAKNTVYLQRNSLKPEDTAVYYCNVAAKYDSFHRGITWYDYWGQGTQVTVSS,low polyreactivity
20,QVQLVESGGGLVQAGGSLRLSCAASGSIFHTYLMGWYRQAPGKERELVASSTRSGGSTYYADSVKGRFTISRDNAKNTVYLQMNSLKPEDTAVYYCAATYRTANHRYYYWGQGTQVTVSS,high polyreactivity
21,QVQLVESGGGLVQAGGSLRLSCAASGSIFHYNAMGWYRQAPGKERELVAAITSGGSTYYADSVKGRFTISRDNAKKTVYLQMNSLKPEDTAVYYCATVFYRTRYVPYGYWGQGTQVTVSS,low polyreactivity
22,QVQLVESGGGLVQAGGSLRLSCAASGSIFHYNAMGWYRQAPGKERELVARISVNGGRTYYADSVKGRFTISRDNAKNTDYLQMNSLKPEDTAVYYCAVEGVWRSFFYGYDSWGQGTQVTVSS,low polyreactivity

row,Sequence,polyreactivity (PSR sort gate)
1,QVQLVESGGGLVQAGGSLRLSCAASGSIFHYYAMGWYRQAPGKERELVAAISWSGGRTNYADSVKGRFTISRDNAKNTVYLQMNSLKPEDTAVYYCAAAERSYSGGGKIGKYYYWGQGTQVTVSS,high polyreactivity
2,QVQLVESGGGLVQAGGSLRLSCAASGSIFIANAMGWYRQAPGKERELVAAITLNGGSTYYADSVKGRFTISRDNAKNTVYLQMNSLKPEDTAVYYCAADWVWVAPQYWIDEYDYWGQGTQVTVSS,low polyreactivity
3,QVQLVESGGGLVQAGGSLRLSCAASGSIFIANAMGWYRQAPGKERELVASISSGGSTNYADSVKGRFTISRDNAKNTVYLQMNSLKPEDTAVYYCAADGTDDYGGDFYLWVDYWGQGTQVTVSS,low polyreactivity
4,QVQLVESGGGLVQAGGSLRLSCAASGSIFIAYGMVWYRQEPGKERELVAAITVSGGNTYYADSVKGRFTISRDNAKNTVYLQMNSLKPEDTAVYYCAADYWYYYGKVLYDYWGQGTQVTVSS,low polyreactivity
5,QVQLVESGGGLVQAGGSLRLSCAASGSIFIDYAMGWYRQAPGKERELVAAISWSGGSTYYADSVKGRFTISRDNAKNTVYLQMNSLKPEDTAVYYCAAYSHVSIWYDYDYWGQGTQVTVSS,low polyreactivity
6,QVQLVESGGGLVQAGGSLRLSCAASGSIFIGNTMGWYRPAPGNERELVATIRRSGSRTYYADSVKGRFTISRDNAKNTVYLQMNSLKPEDTAVYYCAADRLRTSGYKTIYDYWGQGTQVTVSS,low polyreactivity
7,QVQLVESGGGLVQAGGSLRLSCAASGSIFIGYAMGWYRQAPGKERELVAAISWSGDSTYYADSVKGRFTISRDNAKNTVYLQMNSLKPEDTAGYYCAADDLDYDNYYQITGEYDYWGQGTQVTVSS,high polyreactivity
8,QVQLVESGGGLVQAGGSLRLSCAASGSIFIGYAMGWYRQAPGKERELVASIRNGGSTNYADSVKGRFTITRDNAKNTVYLQMNSLKPEDTAVYYCAGRYPVFLVSFGFDYWGQGTQVTVSS,low polyreactivity
9,QVQLVESGGGLVQAGGSLRLSCAASGSIFIQYAMGWYRQAPGKERELVAAITSGGGSTYYADSVKGRFTISRDNAKNTVYLQMNSLKPEDTAVYYCAVDRTRRPAVPYVTLDRGYCGQGTQVTVSS,low polyreactivity
10,QVQLVESGGGLVQAGGSLRLSCAASGSIFIQYAMGWYSQAPGKERELVAAINSSGGRTYYADSVKGRFTISRDNAKNTVYLQMNSLKPEDTAVYYCAADPGSSFDWGQGTQVTVSS,low polyreactivity
11,QVQLVESGGGLVQAGGSLRLSCAASGSIFIRYAMGWYRQAPGKERELVASISRSGGSTYYADSVKGRFTISRDNAKNTVYLQMNSLKPEDTAVYYCAARRVRPNGYTSSPLDYWGQGTQVTVSS,high polyreactivity
12,QVQLVESGGGLVQAGGSLRLSCAASGSIFISYAMGWYRQAPGKERELVAAISSGGSTNYADSVKGRFTISRDNAKNTVYLQMNSLIPEDTAVYYCAAASAAGYDYWGQGTQVTVSS,low polyreactivity
13,QVQLVESGGGLVQAGGSLRLSCAASGSIFISYARGWYRQAPGKERELVAAITWSGDSTYYADSVKGRFTISRDNAKNTVYLQMNSLKPEDTAVYYCAADWYFRNQRGYYWGQGTQVTVSS,low polyreactivity
14,QVQLVESGGGLVQAGGSLRLSCAASGSIFITYAMGWYRQAPGKERELVAAIRDSGDRTYYADSVKGRFTISRDNAKNTVYLQMNSLKPEDTAVYYCNARWQKPLKYDYWGQGTQVTVSS,low polyreactivity
15,QVQLVESGGGLVQAGGSLRLSCAASGSIFIYAMGWYRQAPGKERELVATISWSGTSTYADSVKGRFTISRDNAKNTVYLQMNSLKPEDTAVYYCNKLKRTYYSSGYPHDYWGQGTQVTVSS,low polyreactivity
16,QVQLVESGGGLVQAGGSLRLSCAASGSIFIYNVMGWYRQAPGKERELVATIRGSGGSTYYADSVKGRFTISRDNAKNTVYLQMNSLKPEDTAVYYCARRDYPYQWGRAYNYWGQGTQVTVSS,high polyreactivity
17,QVQLVESGGGLVQAGGSLRLSCAASGSIFIYYAMGWYRQAPGKEREFVADISYSGDSTYYADSVKGRFTISRDNAKNTVYFQMNSLKPEDTAVYYCAADTWYDAGVYPYDYWGQGTQVTVSS,high polyreactivity
18,QVQLVESGGGLVQAGGSLRLSCAASGSIFIYYAMGWYRQAPGKERELVAAISWSGDRTYYADSVKGRFTISRDNAKNTVYLQMNSLKPEDTAVYYCAARVVTPSAFPRYYWGQGTQVTVSS,high polyreactivity
19,QVQLVESGGGLVQAGGSLRLSCAASGSIFIYYAMGWYRQAPGKERELVAAISYSDGDTYYADSVKGRFTISRDNAKNTVYLQMNSLKPEDTAVYYCAAEVPQYYDVGWEDYCGQGTQVTVSS,high polyreactivity
20,QVQLVESGGGLVQAGGSLRLSCAASGSIFIYYAMGWYRQAPGKEREMVADITFSAGTNTYYADSVKGRFTISRDNAKNTVYLQKNSLKPEDTAVYYCNADRGFIGSITEYDYWGQGTQVTVSS,low polyreactivity
21,QVQLVESGGGLVQAGGSLRLSCAASGSIFIYYTMGWYRQAPGKEREFVASISWRGGRTYYADSVKGRFTISRDNAKNTVYLQMNSLKPEETAVYYCAAEQSRGIEFSYYSLYYWGQGTQVTVSS,high polyreactivity

# Source: the nanobody polyreactivity screen of Harvey et al. (2022)
